Results as given in patent US20260028390A1, “ALPHA1-ANTITRYPSIN FOR USE IN THE TREATMENT OF DISEASES OR DISORDERS OF THE NERVOUS SYSTEM SUCH AS CHRONIC INFLAMMATORY DEMYELINATING POLYNEUROPATHY” (Ageronix SA, priority 2022, published 2026).

Experiments:
[1] = molecular target: T1, Recombinant Human TACE/ADAM17 (Homo sapiens, UniProt P78536); assay: Cell free TACE/ADAM17 activity; format: biochemical
T1 construct: purchased R&D Systems 930-ADB-010
Protocol: TACE activity and its inhibition by human AAT (AAT) was performed with Recombinant Human TACE/ADAM17 kit (930-ADB and ES003, R&D Systems) in black 96-well immuno plates (437111, ThermoFisher Scientific). The enzymatic activity of TACE/ADAM17 was measured by mixing 0.005 μg of rhTACE with 10 μM of Mca-PLAQAV-Dpa-RSSSR-NH2 fluorogenic peptide substrate III in assay buffer (25 mM Tris, 2.5 μM ZnCl2, 0.005% Brij-35 (w/v), pH 9.0) to a final volume of 100 μl. AAT (Sigma Aldrich, batch A6150) was resuspended in water (vehicle), control TACE/ADAM17 activity was assessed in presence of the vehicle (amount used for AAT 100 μM). AAT was added at different concentration (0, 6.25, 12.5, 25, 50 and 100 μM) to assess its dose-dependent inhibition of TACE/ADAM17. All conditions were performed in triplicates. Activity was measured as relative fluorescent unit (RFU) in a kinetic mode (9 time points over 5 min) with a SpectraMax iD3 Microplate Reader (low PMT gain, is exposition, top read at 1 mm, wavelength: excitation 320 nm, emission 405 nm). Bar graph as percentage of control activity was obtained by averaging the values obtained over the 5 min for each of the condition.
TACE activity is assessed according to the manufacturer's instruction (Recombinant Human TACE/ADAM17 kit, 930-ADB, R&D Systems) in kinetic mode, without or with different AAT concentration. All conditions were done in triplicates and are shown as mean±SD (FIGS. 5A, 5B and 5C).
ADAM-17 activity and its inhibition by human peptide 8 was measured with Recombinant Human ADAM-17 kit (Recombinant Human TACE/ADAM17 Protein, CF: 930-ADB-010 and Mca-PLAQAV-Dpa-RSSSR-NH2 Fluorogenic Peptide Substrate:ES003; R&D Systems) in black 96-well immunoplates (437111; Thermo Fisher Scientific). The enzymatic activity of ADAM-17 was measured by mixing 0.005 μg of rhADAM-17 with 10 μM of Mca-PLAQAV-Dpa-RSSSR-NH2 fluorogenic peptide substrate III in assay buffer (25 mM Tris, 2.5 μM ZnCl2, 0.005% Brij-35 (w/v), pH 9.0) to a final volume of 100 μL. Peptide 8 (Syngene) was dissolved in DMSO and diluted to the desired concentration in assay buffer. Control ADAM-17 activity was assessed in the presence of the assay buffer. […] All conditions were performed in triplicate. Activity was measured as relative fluorescent units (RFU) in endpoint mode (5 min) with a SpectraMax iD3 Microplate Reader (automatic PMT gain, wavelengths: excitation 320 nm, emission 405 nm).

[2] = molecular target: Recombinant Human TACE/ADAM17 Protein (R&D Systems 930-ADB) (human) (UniProt P78536); assay: cell-based or functional assay
Recombinant Human TACE/ADAM17 Protein (R&D Systems 930-ADB) (human), sequence (P78536 215-671 limits assumed): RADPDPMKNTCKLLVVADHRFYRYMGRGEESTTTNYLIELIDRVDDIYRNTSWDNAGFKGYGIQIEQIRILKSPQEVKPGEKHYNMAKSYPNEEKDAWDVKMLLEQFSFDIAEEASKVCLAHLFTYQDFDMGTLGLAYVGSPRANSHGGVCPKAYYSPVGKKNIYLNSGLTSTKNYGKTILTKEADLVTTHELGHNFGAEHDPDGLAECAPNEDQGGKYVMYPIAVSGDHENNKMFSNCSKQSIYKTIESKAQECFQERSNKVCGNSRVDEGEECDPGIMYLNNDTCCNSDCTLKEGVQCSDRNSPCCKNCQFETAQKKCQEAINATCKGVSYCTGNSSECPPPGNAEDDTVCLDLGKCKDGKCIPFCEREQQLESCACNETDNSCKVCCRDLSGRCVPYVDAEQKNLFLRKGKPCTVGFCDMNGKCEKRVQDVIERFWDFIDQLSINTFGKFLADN

T1 sequence (P78536 215-671 limits assumed): as above

Row | Substance | inhibition of ADAM17 activity ([1]; peptide 8 at concentration of 100 (μM), experiment 2) [%] | inhibition of ADAM17 activity ([1]; peptide 8 at concentration of 200 (μM), experiment 2) [%] | inhibition of ADAM17 activity ([1]; peptide 8 at concentrations up to 50 μM, vs DMSO) | IC50 of inhibition of TACE activity, cell-free fluorogenic peptide substrate assay [2] [µM]
1 | Ac-YRAHQGE-NH2 [Peptide 8, AAT-related peptide derived from immunoregulatory sites on the surface of AAT] | 36 | 65 | No significant inhibition | 
2 | human alpha1-antitrypsin (AAT) (Sigma Aldrich, batch A6150) (from UniProt P01009 25-418) |  |  |  | 15.3
